pKd: −log10 of the molar value.
System: FasR wild-type (FasRwt) (Mycobacterium tuberculosis H37Rv)
Assay: EMSA

## PfasMT promoter fragment (398 bp)
  pKd: 7.08

Reference: publication PMC7382501
